Assay results as given in US20250339531A1, “DUX4 POLYPEPTIDES AND NUCLEIC ACIDS FOR TREATING INFLAMMATORY AND AUTOIMMUNE CONDITIONS” (Fred Hutchinson Cancer Center, priority 2021, published 2025).

Tests used:
Experiment in all cases: anti-FLAG co-IP LC-MS, exp 3, +IFNg +Dox
[1] = molecular target: 60 kDa heat shock protein, mitochondrial (Homo sapiens) (UniProt P10809)
[2] = molecular target: Prelamin-A/C (Homo sapiens) (UniProt P02545)
Serpin B3 (Homo sapiens) = Serpin B3 (Homo sapiens) (UniProt P29508)
[3] = molecular target: Antigen peptide transporter 1 (Homo sapiens) (UniProt Q03518)
[4] = molecular target: 26S proteasome non-ATPase regulatory subunit 2 (Homo sapiens) (UniProt Q13200)
[5] = molecular target: 40S ribosomal protein S6 (Homo sapiens) (UniProt P62753)
[6] = molecular target: Plasminogen activator inhibitor 1 RNA-binding protein (Homo sapiens) (UniProt Q8NC51)
Sequence of Plasminogen activator inhibitor 1 RNA-binding protein (Homo sapiens) (Q8NC51 2-408 limits assumed): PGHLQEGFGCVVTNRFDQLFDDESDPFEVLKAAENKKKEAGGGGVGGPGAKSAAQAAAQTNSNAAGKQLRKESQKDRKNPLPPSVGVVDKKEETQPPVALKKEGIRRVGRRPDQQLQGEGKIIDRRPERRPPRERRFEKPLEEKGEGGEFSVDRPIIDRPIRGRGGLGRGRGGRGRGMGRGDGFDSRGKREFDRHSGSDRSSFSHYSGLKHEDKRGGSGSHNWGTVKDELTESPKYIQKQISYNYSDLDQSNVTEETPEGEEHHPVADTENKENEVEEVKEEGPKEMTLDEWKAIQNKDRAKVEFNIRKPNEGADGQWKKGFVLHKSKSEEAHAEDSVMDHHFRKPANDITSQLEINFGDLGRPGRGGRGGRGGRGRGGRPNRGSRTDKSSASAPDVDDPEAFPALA

[7] = molecular target: Polypyrimidine tract-binding protein 1 (Homo sapiens) (UniProt P26599)
Sequence of Polypyrimidine tract-binding protein 1 (Homo sapiens) (P26599 whole entry): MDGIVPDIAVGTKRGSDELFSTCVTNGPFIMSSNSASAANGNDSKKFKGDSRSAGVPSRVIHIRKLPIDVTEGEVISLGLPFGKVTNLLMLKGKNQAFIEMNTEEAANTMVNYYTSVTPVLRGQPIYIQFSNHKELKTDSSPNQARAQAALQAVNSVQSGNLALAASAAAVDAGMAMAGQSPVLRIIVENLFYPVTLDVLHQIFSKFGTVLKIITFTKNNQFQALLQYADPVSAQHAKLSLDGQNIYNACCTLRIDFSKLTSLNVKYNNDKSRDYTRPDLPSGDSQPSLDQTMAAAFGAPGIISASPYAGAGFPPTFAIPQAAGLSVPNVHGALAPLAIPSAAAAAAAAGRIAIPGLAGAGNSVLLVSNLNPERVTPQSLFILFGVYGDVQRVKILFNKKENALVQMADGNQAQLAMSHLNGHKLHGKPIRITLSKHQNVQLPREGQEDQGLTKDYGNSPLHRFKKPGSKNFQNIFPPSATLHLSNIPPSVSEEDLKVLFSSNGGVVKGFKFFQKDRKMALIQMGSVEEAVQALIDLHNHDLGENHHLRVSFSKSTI

[8] = molecular target: Clathrin heavy chain (Homo sapiens) (UniProt Q00610)
[9] = molecular target: Protein disulfide-isomerase A3 (Fragment) (Homo sapiens) (UniProt P30101)
[10] = molecular target: 60S ribosomal protein L13 (Homo sapiens) (UniProt P26373)
[11] = molecular target: 40S ribosomal protein S3a (Homo sapiens) (UniProt P61247)
[12] = molecular target: Dolichyl-diphosphooligosaccharide--protein glycosyltransferase subunit 1 (Homo sapiens) (UniProt P04843)
[13] = molecular target: Importin subunit beta-1 (Homo sapiens) (UniProt Q14974)
[14] = molecular target: 60S ribosomal protein L18a (Homo sapiens) (UniProt Q02543)
[15] = molecular target: KN motif and ankyrin repeat domain-containing protein 2 (Homo sapiens) (UniProt Q63ZY3)
[16] = molecular target: Sodium/potassium-transporting ATPase subunit alpha-1 (Homo sapiens) (UniProt P05023)
[17] = molecular target: Spectrin beta chain (Homo sapiens) (UniProt Q01082)
[18] = molecular target: Cytoskeleton-associated protein 4 (Homo sapiens) (UniProt Q07065)
Sequence of Cytoskeleton-associated protein 4 (Homo sapiens) (Q07065 whole entry): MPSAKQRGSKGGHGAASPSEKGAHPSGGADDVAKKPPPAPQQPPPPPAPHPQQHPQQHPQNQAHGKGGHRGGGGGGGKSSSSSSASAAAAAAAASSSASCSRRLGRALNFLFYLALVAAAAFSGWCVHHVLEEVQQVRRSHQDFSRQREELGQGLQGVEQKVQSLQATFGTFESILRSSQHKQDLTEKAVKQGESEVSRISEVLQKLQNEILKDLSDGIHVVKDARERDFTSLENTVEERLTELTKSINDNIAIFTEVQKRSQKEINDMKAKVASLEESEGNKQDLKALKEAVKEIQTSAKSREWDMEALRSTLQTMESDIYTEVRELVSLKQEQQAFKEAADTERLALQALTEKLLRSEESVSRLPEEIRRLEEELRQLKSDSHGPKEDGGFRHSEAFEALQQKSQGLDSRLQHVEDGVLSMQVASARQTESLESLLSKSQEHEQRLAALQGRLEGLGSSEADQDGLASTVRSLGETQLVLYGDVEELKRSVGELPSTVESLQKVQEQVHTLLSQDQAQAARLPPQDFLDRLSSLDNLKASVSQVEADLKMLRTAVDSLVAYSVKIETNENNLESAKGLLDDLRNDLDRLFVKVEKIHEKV

[19] = molecular target: Ras GTPase-activating protein-binding protein 1 (Homo sapiens) (UniProt Q13283)
[20] = molecular target: ADP/ATP translocase 2 (Homo sapiens) (UniProt P05141)
[21] = molecular target: Plasminogen activator inhibitor 1 (Homo sapiens) (UniProt P05121)
[22] = molecular target: Tubulin beta-2A chain (Homo sapiens) (UniProt Q13885)
[23] = molecular target: Neuroblast differentiation-associated protein AHNAK (Homo sapiens) (UniProt Q09666)
[24] = molecular target: Caveolae-associated protein 1 (Homo sapiens) (UniProt Q6NZI2)
[25] = molecular target: Tubulin alpha-4A chain (Homo sapiens) (UniProt P68366)
[26] = molecular target: Aspartyl/asparaginyl beta-hydroxylase (Homo sapiens) (UniProt Q12797)
Sequence of Aspartyl/asparaginyl beta-hydroxylase (Homo sapiens) (Q12797 whole entry): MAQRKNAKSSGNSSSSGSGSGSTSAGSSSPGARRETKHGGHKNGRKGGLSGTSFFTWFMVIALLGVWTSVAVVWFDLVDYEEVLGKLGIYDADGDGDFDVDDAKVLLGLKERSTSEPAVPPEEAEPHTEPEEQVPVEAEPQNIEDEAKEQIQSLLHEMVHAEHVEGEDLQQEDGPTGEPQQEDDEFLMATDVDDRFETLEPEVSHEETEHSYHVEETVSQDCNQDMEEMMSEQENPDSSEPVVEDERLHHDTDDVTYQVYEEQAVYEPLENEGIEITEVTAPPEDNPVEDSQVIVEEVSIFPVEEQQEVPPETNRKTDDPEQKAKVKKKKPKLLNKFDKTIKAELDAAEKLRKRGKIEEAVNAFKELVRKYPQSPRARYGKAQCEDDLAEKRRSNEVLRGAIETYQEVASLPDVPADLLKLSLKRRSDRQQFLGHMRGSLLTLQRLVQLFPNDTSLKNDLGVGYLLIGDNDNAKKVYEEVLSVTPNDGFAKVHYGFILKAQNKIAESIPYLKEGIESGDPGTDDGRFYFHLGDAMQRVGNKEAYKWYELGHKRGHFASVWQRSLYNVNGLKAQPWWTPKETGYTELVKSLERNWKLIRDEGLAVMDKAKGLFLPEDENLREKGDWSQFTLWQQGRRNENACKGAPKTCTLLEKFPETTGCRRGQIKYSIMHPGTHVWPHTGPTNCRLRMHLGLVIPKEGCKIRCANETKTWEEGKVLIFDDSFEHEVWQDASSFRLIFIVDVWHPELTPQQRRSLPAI

Filamin-A (Homo sapiens) = Filamin-A (Homo sapiens) (UniProt P21333)
[27] = molecular target: S-adenosylhomocysteine hydrolase-like protein 1 (Homo sapiens) (UniProt O43865)
[28] = molecular target: Tubulin beta chain (Homo sapiens) (UniProt P07437)
[29] = molecular target: AP-2 complex subunit alpha-1 (Homo sapiens) (UniProt O95782)
Sequence of AP-2 complex subunit alpha-1 (Homo sapiens) (O95782 whole entry, one chain of several): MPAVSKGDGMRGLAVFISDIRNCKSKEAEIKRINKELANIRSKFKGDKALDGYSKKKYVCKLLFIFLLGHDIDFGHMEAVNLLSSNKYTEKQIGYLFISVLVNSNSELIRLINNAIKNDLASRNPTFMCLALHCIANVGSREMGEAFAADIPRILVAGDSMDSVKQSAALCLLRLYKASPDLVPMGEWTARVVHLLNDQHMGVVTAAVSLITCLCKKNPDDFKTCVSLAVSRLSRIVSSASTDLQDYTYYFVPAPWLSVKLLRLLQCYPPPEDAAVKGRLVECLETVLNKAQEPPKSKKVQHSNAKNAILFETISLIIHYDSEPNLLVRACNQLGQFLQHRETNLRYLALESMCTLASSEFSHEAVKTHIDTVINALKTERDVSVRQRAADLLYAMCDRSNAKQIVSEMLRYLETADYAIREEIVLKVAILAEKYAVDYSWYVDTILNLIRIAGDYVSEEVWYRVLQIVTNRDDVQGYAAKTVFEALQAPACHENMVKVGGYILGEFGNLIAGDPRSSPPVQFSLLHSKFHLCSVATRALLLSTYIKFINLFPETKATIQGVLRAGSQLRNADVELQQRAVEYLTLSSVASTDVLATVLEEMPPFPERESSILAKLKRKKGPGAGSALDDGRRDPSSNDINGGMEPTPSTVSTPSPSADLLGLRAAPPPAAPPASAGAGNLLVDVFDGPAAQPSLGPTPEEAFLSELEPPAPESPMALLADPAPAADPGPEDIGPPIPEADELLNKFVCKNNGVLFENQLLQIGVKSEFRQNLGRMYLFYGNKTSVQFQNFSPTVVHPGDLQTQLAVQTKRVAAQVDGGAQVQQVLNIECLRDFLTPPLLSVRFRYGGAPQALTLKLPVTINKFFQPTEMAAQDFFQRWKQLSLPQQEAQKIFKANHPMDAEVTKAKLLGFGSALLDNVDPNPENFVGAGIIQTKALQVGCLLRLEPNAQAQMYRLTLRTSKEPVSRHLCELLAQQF

[30] = molecular target: Probable ATP-dependent RNA helicase DDX6 (Homo sapiens) (UniProt P26196)
Sequence of Probable ATP-dependent RNA helicase DDX6 (Homo sapiens) (P26196 whole entry): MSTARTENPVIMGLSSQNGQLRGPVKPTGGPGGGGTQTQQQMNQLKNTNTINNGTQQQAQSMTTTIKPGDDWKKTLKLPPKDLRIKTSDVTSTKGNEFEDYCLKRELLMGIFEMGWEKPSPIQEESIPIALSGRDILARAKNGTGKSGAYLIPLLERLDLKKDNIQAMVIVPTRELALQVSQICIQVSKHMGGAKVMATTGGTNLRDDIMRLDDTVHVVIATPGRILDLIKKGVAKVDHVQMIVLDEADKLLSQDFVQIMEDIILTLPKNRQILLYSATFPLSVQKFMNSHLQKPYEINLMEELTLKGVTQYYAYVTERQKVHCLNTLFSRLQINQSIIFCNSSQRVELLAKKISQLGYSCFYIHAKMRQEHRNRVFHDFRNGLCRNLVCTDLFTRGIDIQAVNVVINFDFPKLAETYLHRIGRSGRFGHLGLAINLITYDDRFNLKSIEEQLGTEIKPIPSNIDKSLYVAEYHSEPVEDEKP

[31] = molecular target: Neutral cholesterol ester hydrolase 1 (Homo sapiens) (UniProt Q6PIU2)
[32] = molecular target: Procollagen-lysine, 2-oxoglutarate 5-dioxygenase 3 (Homo sapiens) (UniProt O60568)
Sequence of Procollagen-lysine, 2-oxoglutarate 5-dioxygenase 3 (Homo sapiens) (O60568 25-738 limits assumed): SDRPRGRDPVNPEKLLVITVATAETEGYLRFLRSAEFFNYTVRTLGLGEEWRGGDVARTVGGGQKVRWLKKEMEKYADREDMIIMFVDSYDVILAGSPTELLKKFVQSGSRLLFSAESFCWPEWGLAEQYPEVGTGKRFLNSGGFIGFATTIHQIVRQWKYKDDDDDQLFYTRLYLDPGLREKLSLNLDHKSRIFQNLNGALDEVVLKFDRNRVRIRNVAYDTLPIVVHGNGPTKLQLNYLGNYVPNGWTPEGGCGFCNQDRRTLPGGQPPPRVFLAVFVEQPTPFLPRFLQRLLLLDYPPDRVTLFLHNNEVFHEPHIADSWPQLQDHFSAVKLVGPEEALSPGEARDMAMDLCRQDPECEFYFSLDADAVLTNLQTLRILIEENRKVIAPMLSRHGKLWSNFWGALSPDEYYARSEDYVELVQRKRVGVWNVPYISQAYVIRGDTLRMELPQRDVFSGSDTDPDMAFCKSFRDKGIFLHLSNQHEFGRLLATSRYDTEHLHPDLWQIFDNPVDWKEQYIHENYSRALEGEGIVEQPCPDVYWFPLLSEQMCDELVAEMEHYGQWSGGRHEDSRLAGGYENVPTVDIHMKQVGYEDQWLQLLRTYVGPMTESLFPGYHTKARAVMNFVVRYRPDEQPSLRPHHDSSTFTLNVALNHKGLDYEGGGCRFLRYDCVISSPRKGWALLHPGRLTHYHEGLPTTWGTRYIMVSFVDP

[33] = molecular target: Prolyl 4-hydroxylase subunit alpha-1 (Homo sapiens) (UniProt P13674)
[34] = molecular target: Ribosome-binding protein 1 (Homo sapiens) (UniProt Q9P2E9)

Sequence of 60 kDa heat shock protein, mitochondrial (Homo sapiens) (P10809 27-573 limits assumed): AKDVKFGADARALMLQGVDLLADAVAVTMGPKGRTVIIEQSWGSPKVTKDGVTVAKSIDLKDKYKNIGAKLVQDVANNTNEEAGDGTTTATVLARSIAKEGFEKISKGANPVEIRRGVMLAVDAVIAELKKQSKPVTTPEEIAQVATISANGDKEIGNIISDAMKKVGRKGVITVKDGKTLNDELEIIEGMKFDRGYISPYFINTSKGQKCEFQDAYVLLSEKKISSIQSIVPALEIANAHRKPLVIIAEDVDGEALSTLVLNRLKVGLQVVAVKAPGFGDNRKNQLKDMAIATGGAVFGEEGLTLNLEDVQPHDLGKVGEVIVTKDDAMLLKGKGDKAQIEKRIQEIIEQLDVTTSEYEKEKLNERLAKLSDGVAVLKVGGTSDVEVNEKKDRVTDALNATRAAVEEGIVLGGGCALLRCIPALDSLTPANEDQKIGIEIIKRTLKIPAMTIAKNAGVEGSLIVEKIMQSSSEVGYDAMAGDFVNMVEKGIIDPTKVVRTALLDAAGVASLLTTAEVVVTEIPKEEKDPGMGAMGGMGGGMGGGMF

i3XFLAG-NLS-CTDaa154-424
PSMs [1]: 2 PSMs
PSMs [2]: 3 PSMs
PSMs (Serpin B3 (Homo sapiens)): 2 PSMs
PSMs [3]: 3 PSMs
PSMs [4]: 3 PSMs
PSMs [5]: 3 PSMs
PSMs [6]: 3 PSMs
PSMs [7]: 2 PSMs
PSMs [8]: 11 PSMs
PSMs [9]: 2 PSMs
PSMs [10]: 7 PSMs
PSMs [11]: 5 PSMs
PSMs [12]: 14 PSMs
PSMs [13]: 5 PSMs
PSMs [14]: 2 PSMs
PSMs [15]: 3 PSMs
PSMs [16]: 3 PSMs
PSMs [17]: 9 PSMs
PSMs [18]: 62 PSMs
PSMs [19]: 2 PSMs
PSMs [20]: 3 PSMs
PSMs [21]: 3 PSMs
PSMs [22]: 61 PSMs
PSMs [23]: 4 PSMs
PSMs [24]: 3 PSMs
PSMs [25]: 39 PSMs
PSMs [26]: 9 PSMs
PSMs (Filamin-A (Homo sapiens)): 12 PSMs
PSMs [27]: 11 PSMs
PSMs [28]: 75 PSMs
PSMs [29]: 31 PSMs
PSMs [30]: 3 PSMs
PSMs [31]: 11 PSMs
PSMs [32]: 2 PSMs
PSMs [33]: 5 PSMs
PSMs [34]: 68 PSMs
